Source: patent US20200216522A1 (DENALI THERAPEUTICS, published 2020)
Numbering of substitutions follows the chain as printed. Names may count otherwise. Read-outs that look alike come from different tables or passages of the source. Each block holds one binder with its values, some of them ahead of it.

How the values were obtained:
[1] = target: T1, full-length human Tau (Tau441; 2N4R), recombinant (human, UniProt P10636 1-758); assay: Fab ELISA
T1 construct: made in E. coli, His6-Smt3 tag removed; biotinylated through amines for Octet and phage work; also called r-Tau; recombinant Tau
Procedure: (§1) Half-area ELISA plates (Costar™) were coated overnight at 4° C. with 25 μL per well of 0.5 μg/mL r-Tau or p-Tau. The plates were washed three times with PBST using a BioTek® plate washer. The plates were then blocked for one hour at room temperature with 100 μL per well of PBSA. After washing three times with PBST, the periplasmically-expressed Fabs were added ([…]) and the plates were incubated for one hour. The plates were subsequently washed three times with PBST, and 25 μL per well of PBSA containing a 1:5,000 dilution of HRP-conjugated rabbit anti-human kappa (obtained from Bethyl Laboratories) was added. The plates were incubated at room temperature for 30 minutes, then washed three times with PBST. The plates were developed by adding 25 μL per well of TMB substrate (obtained from Thermo Fisher) and quenched with 2N H₂SO₄. The signal was quantified on a BioTek® plate reader at A₄₅₀. Wells with signal greater than 5-fold over background for both r-Tau and p-Tau were considered positive and the clones were re-arrayed from the primary culture for confirmation of binding (by repeat of ELISA) and sequencing of the variable regions.
(§2) ELISAs were performed essentially as described above, but coating was performed using 1 μg/mL of each recombinant Tau species and using a 1:1 dilution (in PBS with 0.1% BSA, 0.05% Tween®) of Fab containing supernatant. The results of the ELISAs, showing Fab binding to cyno Tau and mouse Tau, as well as binding to phosphorylated full-length human Tau and the human Tau isoforms, are shown in Table 1 below.

[2] = target: T2, cynomolgus monkey Tau (cynomolgus monkey, UniProt P57786 2-459 (rhesus entry)); assay: Fab ELISA
T2 construct: also called cyno Tau; cyno-Tau
Procedure: as §1, §2

[3] = target: mouse Tau (mouse, UniProt P10637 2-733); assay: Fab ELISA
Procedure: as §1, §2

[4] = target: human Tau splice isoform 0N3R (Tau352) (human, UniProt P10636 1-758); assay: Fab ELISA
Procedure: as §1, §2

[5] = target: human Tau splice isoform 0N4R (Tau383) (human, UniProt P10636 1-758); assay: Fab ELISA
Procedure: as §1, §2

[6] = target: human Tau splice isoform 1N3R (Tau381) (human, UniProt P10636 1-758); assay: Fab ELISA
Procedure: as §1, §2

[7] = target: human Tau splice isoform 1N4R (Tau412) (human, UniProt P10636 1-758); assay: Fab ELISA
Procedure: as §1, §2

[8] = target: human Tau splice isoform 2N3R (Tau410) (human, UniProt P10636 1-758); assay: Fab ELISA
Procedure: as §1, §2

[9] = target: T3, C-terminal truncated human Tau (Tau(1-421)) (human, UniProt P10636 1-738); assay: Fab ELISA
T3 construct: also called 1-421 (2N4R)
Procedure: as §1, §2

[10] = target: T4, N-terminal truncated human Tau (Tau(50-441)) (human, UniProt P10636 50-758); assay: Fab ELISA
T4 construct: also called 50-441 (2N4R)
Procedure: as §1, §2

[11] = target: T5, hyperphosphorylated recombinant human Tau441 (p-Tau) (human, UniProt P10636 1-758, phosphorylated in vitro with PKA and GSK3beta; sites not listed); assay: Fab ELISA
T5 construct: also called p-Tau (2N4R); phosphorylated r-Tau
Procedure: as §1, §2

[12] = target: T1, full-length human Tau (Tau441; 2N4R), …; assay: SPR Biacore
[13] = target: T1, full-length human Tau (Tau441; 2N4R), …; assay: SPR Biacore; remark: listed apart in the source
Procedure: (§3) IgG was purified with protein A affinity chromatography. The affinity of each hulC7 IgG variant for r-Tau was determined by surface plasmon resonance using a Biacore™ T200 instrument. Biacore™ Series S CM5 sensor chips were immobilized with monoclonal mouse anti-human IgG (Fc) antibody (Human antibody capture kit from GE Healthcare). Serial 3-fold dilutions of each hulC7 variant were injected at a flow rate of […]. Each sample was analyzed with 3-minute association and 10-minute dissociation. After each injection, the chip was regenerated using 3 M MgCl₂. Binding response was corrected by subtracting the RU from a flow cell capturing an irrelevant IgG at similar density. A 1:1 Languir model of simultaneous fitting of kₒₙ and koff was used for kinetics analysis.

[14] = target: T1, full-length human Tau (Tau441; 2N4R), …; assay: SPR Biacore; remark: listed apart in the source
[15] = target: T1, full-length human Tau (Tau441; 2N4R), …; assay: SPR Biacore; remark: listed apart in the source
Procedure: as §3
A further round of affinity maturation was performed by mutating certain amino acids in selected CDR-H1, CDR-L1, and CDR-L3 sequences from Table 9A, as well as the sequence of CDR-H2 (SEQ ID NO:23) of hulC7.v2. Sequence changes were identified in each CDR (Table 9B). Binding affinities were evaluated using Biacore™ (Table 10B).

T1 sequence (P10636 other isoform, or with tags, fused parts or gaps limits assumed): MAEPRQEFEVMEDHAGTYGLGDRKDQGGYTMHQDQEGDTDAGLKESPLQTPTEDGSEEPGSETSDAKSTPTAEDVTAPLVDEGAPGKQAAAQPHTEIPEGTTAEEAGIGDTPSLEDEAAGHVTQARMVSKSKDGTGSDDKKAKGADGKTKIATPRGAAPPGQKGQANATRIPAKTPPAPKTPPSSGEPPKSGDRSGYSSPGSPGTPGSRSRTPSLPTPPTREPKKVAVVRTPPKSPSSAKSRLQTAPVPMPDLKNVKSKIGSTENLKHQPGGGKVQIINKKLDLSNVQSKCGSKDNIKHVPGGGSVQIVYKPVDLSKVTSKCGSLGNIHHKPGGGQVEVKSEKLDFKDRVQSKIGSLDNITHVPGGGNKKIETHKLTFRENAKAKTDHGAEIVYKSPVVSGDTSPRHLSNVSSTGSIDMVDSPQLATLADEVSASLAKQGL
human Tau splice isoform 1N3R (Tau381), sequence (P10636 other isoform, or with tags, fused parts or gaps limits assumed): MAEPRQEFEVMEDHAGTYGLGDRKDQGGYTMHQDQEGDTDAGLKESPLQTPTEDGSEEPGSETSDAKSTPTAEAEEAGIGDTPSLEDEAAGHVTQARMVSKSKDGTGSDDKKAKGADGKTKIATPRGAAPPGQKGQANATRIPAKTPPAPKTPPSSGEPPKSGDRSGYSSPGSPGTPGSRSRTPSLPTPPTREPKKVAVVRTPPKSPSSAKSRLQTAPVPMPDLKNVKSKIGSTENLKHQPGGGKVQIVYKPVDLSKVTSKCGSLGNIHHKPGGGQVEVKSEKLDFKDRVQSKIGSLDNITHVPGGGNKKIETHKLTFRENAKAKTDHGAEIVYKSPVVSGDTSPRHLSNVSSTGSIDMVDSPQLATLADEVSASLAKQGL
T3 sequence (P10636 other isoform, or with tags, fused parts or gaps limits assumed): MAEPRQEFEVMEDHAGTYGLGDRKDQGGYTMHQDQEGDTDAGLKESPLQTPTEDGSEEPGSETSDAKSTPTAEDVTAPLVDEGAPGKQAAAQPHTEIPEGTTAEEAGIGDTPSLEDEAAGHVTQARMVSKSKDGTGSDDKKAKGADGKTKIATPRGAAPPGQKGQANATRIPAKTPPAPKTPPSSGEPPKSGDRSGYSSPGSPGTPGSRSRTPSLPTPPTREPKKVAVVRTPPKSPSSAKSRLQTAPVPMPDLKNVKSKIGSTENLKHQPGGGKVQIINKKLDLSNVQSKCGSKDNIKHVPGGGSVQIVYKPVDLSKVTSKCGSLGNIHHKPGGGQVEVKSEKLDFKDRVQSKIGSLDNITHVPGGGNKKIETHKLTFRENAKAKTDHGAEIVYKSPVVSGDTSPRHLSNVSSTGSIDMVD
mouse Tau, sequence (P10637 other isoform, or with tags, fused parts or gaps limits assumed): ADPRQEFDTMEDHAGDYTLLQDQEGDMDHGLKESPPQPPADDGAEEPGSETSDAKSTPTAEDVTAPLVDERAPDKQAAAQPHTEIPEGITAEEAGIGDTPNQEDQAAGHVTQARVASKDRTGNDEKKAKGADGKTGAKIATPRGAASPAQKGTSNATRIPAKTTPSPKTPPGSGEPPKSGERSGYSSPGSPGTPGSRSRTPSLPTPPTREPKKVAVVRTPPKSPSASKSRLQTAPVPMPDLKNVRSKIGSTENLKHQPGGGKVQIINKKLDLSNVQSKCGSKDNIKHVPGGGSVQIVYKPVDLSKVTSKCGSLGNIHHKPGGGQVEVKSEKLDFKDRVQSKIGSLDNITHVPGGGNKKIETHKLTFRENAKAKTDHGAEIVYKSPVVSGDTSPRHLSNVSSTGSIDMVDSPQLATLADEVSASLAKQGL
T4 sequence (P10636 other isoform, or with tags, fused parts or gaps limits assumed): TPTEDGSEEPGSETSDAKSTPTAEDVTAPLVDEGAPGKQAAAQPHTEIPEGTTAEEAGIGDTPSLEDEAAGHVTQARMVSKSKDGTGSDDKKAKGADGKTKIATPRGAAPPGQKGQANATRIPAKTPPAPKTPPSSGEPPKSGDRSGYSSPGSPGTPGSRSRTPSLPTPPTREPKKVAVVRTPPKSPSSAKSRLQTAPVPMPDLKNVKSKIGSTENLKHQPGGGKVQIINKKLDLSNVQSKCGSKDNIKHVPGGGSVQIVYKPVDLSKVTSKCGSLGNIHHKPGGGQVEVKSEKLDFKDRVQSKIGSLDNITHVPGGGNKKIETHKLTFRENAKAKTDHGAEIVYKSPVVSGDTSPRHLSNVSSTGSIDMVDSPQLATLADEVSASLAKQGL
human Tau splice isoform 0N3R (Tau352), sequence (P10636 other isoform, or with tags, fused parts or gaps limits assumed): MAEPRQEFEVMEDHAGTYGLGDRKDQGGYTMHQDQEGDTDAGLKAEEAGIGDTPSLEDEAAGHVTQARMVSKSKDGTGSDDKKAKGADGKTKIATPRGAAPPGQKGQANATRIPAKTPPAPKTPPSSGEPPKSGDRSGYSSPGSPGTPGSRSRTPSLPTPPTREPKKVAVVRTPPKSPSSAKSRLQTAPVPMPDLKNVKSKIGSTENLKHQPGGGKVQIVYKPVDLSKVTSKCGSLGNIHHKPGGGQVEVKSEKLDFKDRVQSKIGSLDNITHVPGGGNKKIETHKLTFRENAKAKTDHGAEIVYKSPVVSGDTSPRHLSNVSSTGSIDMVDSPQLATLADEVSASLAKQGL
human Tau splice isoform 2N3R (Tau410), sequence (P10636 other isoform, or with tags, fused parts or gaps limits assumed): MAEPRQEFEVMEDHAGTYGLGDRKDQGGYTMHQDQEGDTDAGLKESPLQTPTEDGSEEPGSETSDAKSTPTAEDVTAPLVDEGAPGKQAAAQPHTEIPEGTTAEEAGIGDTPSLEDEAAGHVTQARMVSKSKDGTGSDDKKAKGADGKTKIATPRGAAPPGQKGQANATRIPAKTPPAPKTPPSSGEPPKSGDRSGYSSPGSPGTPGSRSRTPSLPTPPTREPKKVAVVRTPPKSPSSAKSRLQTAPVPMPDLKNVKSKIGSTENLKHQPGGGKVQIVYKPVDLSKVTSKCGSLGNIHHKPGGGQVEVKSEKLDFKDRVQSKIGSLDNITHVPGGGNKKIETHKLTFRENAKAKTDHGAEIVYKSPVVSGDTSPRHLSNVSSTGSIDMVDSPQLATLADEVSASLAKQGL
human Tau splice isoform 0N4R (Tau383), sequence (P10636 other isoform, or with tags, fused parts or gaps limits assumed): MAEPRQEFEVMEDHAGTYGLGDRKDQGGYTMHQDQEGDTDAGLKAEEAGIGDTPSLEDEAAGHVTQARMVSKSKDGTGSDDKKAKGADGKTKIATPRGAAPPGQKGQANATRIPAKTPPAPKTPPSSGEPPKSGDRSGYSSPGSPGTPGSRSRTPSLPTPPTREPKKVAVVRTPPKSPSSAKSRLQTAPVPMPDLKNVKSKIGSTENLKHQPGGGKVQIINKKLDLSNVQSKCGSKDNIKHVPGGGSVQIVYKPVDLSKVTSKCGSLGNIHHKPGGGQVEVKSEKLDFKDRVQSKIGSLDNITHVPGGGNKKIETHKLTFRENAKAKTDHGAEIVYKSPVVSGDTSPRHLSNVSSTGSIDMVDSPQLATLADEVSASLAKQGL
T2 sequence (P57786 other isoform, or with tags, fused parts or gaps limits assumed): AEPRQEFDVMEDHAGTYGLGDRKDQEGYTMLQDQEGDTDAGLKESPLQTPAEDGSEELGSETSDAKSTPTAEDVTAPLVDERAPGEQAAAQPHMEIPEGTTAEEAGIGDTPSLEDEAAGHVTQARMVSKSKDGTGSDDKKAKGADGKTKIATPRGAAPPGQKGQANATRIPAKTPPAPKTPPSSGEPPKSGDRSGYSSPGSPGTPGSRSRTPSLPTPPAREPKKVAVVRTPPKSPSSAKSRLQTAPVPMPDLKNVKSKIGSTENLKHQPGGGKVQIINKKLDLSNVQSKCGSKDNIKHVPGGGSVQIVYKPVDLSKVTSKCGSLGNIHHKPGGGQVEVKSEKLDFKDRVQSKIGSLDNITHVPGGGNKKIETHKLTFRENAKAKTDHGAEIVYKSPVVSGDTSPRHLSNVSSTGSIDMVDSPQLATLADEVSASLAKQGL
human Tau splice isoform 1N4R (Tau412), sequence (P10636 other isoform, or with tags, fused parts or gaps limits assumed): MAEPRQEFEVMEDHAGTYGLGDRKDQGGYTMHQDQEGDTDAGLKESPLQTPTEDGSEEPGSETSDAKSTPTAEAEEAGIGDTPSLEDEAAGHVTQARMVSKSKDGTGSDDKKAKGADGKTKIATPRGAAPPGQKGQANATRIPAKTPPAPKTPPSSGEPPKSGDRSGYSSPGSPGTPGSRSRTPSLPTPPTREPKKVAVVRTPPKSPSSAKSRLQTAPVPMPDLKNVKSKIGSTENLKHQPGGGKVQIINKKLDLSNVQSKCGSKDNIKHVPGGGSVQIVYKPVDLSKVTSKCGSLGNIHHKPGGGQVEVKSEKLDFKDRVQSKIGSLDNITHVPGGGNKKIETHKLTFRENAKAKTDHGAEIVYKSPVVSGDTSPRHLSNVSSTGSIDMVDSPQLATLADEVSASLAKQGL

B2: hu1C7.v2 (S49A) (antibody, V domains shown)
VH: EVQLLESGGGLVQPGGSLRLSCAASGFTFSSYGMSWVRQAPGKGLEWVASISGDGGSYIHYADSVKGRFTISRDNSKNTLYLQMNSLRAEDTAVYYCARLPYWGQGTLVTVSS
VL: DIVMTQSPDSLAVSLGERATINCKSSQSLLNSGNQKNYLTWYQQKPGQPPKLLIYWASTRESGVPDRFSGSGSGTDFTLTISSLQAEDVAVYYCQQYNSYPLTFGQGTKVEIKR
Kd [12]: ~1.6 nM | fold weaker binding than chimeric 1C7 [12]: ~2 fold | Kd [13]: 1.5 nM | koff [13]: 0.0011 s⁻¹ | kon [13]: 760000 M⁻¹ s⁻¹ | Kd [14]: 1.5 nM | koff [14]: 0.0011 s⁻¹ | kon [14]: 760000 M⁻¹ s⁻¹ | Kd [15]: 1.45 nM | koff [15]: 0.000851 s⁻¹ | kon [15]: 585000 M⁻¹ s⁻¹

B3: Clone with L1_3 (antibody, V domains shown)
VH: B2 VH
VL: DIVMTQSPDSLAVSLGERATINCKSSQSLHRSGTQKDYLVWYQQKPGQPPKLLIYWASTRESGVPDRFSGSGSGTDFTLTISSLQAEDVAVYYCQQYNSYPLTFGQGTKVEIK
notes: IgG based on hu1C7.v2
Kd [14]: 0.133 nM | koff [14]: 0.000286 s⁻¹ | kon [14]: 2.15e+06 M⁻¹ s⁻¹ | Kd [15]: 0.109 nM | koff [15]: 0.000133 s⁻¹ | kon [15]: 1.22e+06 M⁻¹ s⁻¹

B5: Clone with L1_3 and H1_1 (antibody, V domains shown)
VH: B2 VH with T28K, S31R, Y32V, M34V
VL: B3 VL
notes: IgG based on hu1C7.v2
Kd [14]: 0.069 nM | koff [14]: 0.000113 s⁻¹ | kon [14]: 1.64e+06 M⁻¹ s⁻¹

B6: Clone with L1_1 (antibody, V domains shown)
VH: B2 VH
VL: B2 VL with Q27H, L30Y, N31S, G33R, N34R, Q35H, N37H, T40A
Kd [14]: 0.192 nM | koff [14]: 0.000297 s⁻¹ | kon [14]: 1.54e+06 M⁻¹ s⁻¹

B7: Clone with L1_3 and H3_1 (antibody, V domains shown)
VH: B2 VH with R99K, Y102F
VL: B3 VL
notes: IgG based on hu1C7.v2
Kd [14]: 0.062 nM | koff [14]: 0.000145 s⁻¹ | kon [14]: 2.36e+06 M⁻¹ s⁻¹

B8: hu1C7.v3 (S75A) (antibody, V domains shown)
VH: B2 VH with A49S, S76A
VL: B2 VL
Kd [12]: ~1.6 nM | fold weaker binding than chimeric 1C7 [12]: ~2 fold | Kd [13]: 1.7 nM | koff [13]: 0.0012 s⁻¹ | kon [13]: 730000 M⁻¹ s⁻¹

B10: Clone with L1_3 and H1_4 (antibody, V domains shown)
VH: B2 VH with T28R, S31G, Y32P
VL: B3 VL
notes: IgG based on hu1C7.v2
Kd [14]: 0.038 nM | koff [14]: 8.72e-05 s⁻¹ | kon [14]: 2.28e+06 M⁻¹ s⁻¹

B12: Clone with H1_2 (antibody, V domains shown)
VH: B2 VH with S31R, Y32V, M34T
VL: B2 VL
notes: IgG based on hu1C7.v2
Kd [14]: 0.092 nM | koff [14]: 0.000144 s⁻¹ | kon [14]: 1.56e+06 M⁻¹ s⁻¹ | Kd [15]: 0.478 nM | koff [15]: 0.000132 s⁻¹ | kon [15]: 276000 M⁻¹ s⁻¹

B13: anti-Tau antibody 1C7/3C.35.21 (antibody, human IgG1, kappa, L234A L235A)
heavy 1: EVKLVESGGGLVKPGGSLKLSCAASGFTFSSYGMSWVRQTPEKRLEWVASISGDGGSYIHYADSVKGRFTISRDSAKNTLYLQMSSLRSEDTALYYCARLPYWGQGTLVTVSAASTKGPSVFPLAPSSKSTSGGTAALGCLVKDYFPEPVTVSWNSGALTSGVHTFPAVLQSSGLYSLSSVVTVPSSSLGTQTYICNVNHKPSNTKVDKKVEPKSCDKTHTCPPCPAPEAAGGPSVFLFPPKPKDTLMISRTPEVTCVVVDVSHEDPEVKFNWYVDGVEVHNAKTKPREEQYNSTYRVVSVLTVLHQDWLNGKEYKCKVSNKALGAPIEKTISKAKGQPREPQVYTLPPSRDELTKNQVSLWCLVKGFYPSDIAVWWESYGTEWSSYKTTPPVLDSDGSFFLYSKLTVTKEEWQQGFVFSCSVMHEALHNHYTQKSLSLSPGK
heavy 2: EVKLVESGGGLVKPGGSLKLSCAASGFTFSSYGMSWVRQTPEKRLEWVASISGDGGSYIHYADSVKGRFTISRDSAKNTLYLQMSSLRSEDTALYYCARLPYWGQGTLVTVSAASTKGPSVFPLAPSSKSTSGGTAALGCLVKDYFPEPVTVSWNSGALTSGVHTFPAVLQSSGLYSLSSVVTVPSSSLGTQTYICNVNHKPSNTKVDKKVEPKSCDKTHTCPPCPAPEAAGGPSVFLFPPKPKDTLMISRTPEVTCVVVDVSHEDPEVKFNWYVDGVEVHNAKTKPREEQYNSTYRVVSVLTVLHQDWLNGKEYKCKVSNKALGAPIEKTISKAKGQPREPQVYTLPPSRDELTKNQVSLSCAVKGFYPSDIAVEWESNGQPENNYKTTPPVLDSDGSFFLVSKLTVDKSRWQQGNVFSCSVMHEALHNHYTQKSLSLSPGK
light: DIVMTQSPSSLTVTAGEKVTMSCKSSQSLLNSGNQKNYLTWYQQKPGQPPKLLIYWASTRESGVPDRFTGSGSGTDFTLTISNVQSEDLAEYFCQQYNSYPLTFGAGTKLELKRTVAAPSVFIFPPSDEQLKSGTASVVCLLNNFYPREAKVQWKVDNALQSGNSQESVTEQDSKDSTYSLSSTLTLSKADYEKHKVYACEVTHQGLSSPVTKSFNRGEC
notes: two 1C7 Fab arms; LALAPG; also called Tau^1C7/3C.35.21
Kd [12]: 0.4 nM

More lines, now with the values ahead:

A450 avg. [1]: 2.5 | A450 avg. [2]: 1.81 | A450 avg. [3]: 1.95 | A450 avg. [4]: 1.54 | A450 avg. [5]: 2.37 | A450 avg. [6]: 2.59 | A450 avg. [7]: 2.39 | A450 avg. [8]: 2.52 | A450 avg. [9]: 1.52 | A450 avg. [10]: 1.8 | A450 avg. [11]: 2.09
B1: Clone 1A1 Fab (Fab, V domains shown)
VH: EVQLQQSGAELVRPGASVRLSCTASGFNIKDSLMHWLKQRPEQGLEWIGWIDPEDGETKYAPKFQDKATITADTSSNTAYLQLSSLTSEDTAIYYCTRRDWEGPWGQGTLVTVSA
VL: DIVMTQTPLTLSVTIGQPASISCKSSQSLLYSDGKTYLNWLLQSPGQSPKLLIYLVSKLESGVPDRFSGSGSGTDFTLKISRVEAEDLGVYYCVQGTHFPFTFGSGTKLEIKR
notes: crude periplasmic Fab; mouse V regions joined to human CH1 and human kappa constant

Kd [12]: ~1.6 nM | fold weaker binding than chimeric 1C7 [12]: ~2 fold | Kd [13]: 1.8 nM | koff [13]: 0.0011 s⁻¹ | kon [13]: 660000 M⁻¹ s⁻¹
B4: hu1C7.v4 (S49A, S75A) (antibody, V domains shown)
VH: B2 VH with S76A
VL: B2 VL

Kd [12]: ~1.6 nM | fold weaker binding than chimeric 1C7 [12]: ~2 fold
B9: hu1C7.v1 (antibody, V domains shown)
VH: B2 VH with A49S
VL: B2 VL

Kd [14]: 0.174 nM | koff [14]: 0.00023 s⁻¹ | kon [14]: 1.32e+06 M⁻¹ s⁻¹ | Kd [15]: 0.333 nM | koff [15]: 0.000188 s⁻¹ | kon [15]: 564000 M⁻¹ s⁻¹
B11: Clone with H1_4 (antibody, V domains shown)
VH: B2 VH with T28R, S31G, Y32P
VL: B2 VL
notes: IgG based on hu1C7.v2
